For data set [1], the system named is CD138+ MOLP-8 cells. Put plainly: Cell viability assay (WST).
Data set [2] has as its system OPM-2 cells. Put plainly: FACS analysis of binding to OPM-2 cells. Particulars: mean fluorescence vs concentration (FIG. 6). From the text:
OPM-2 cells are plasma cell leukemia cell lines showing highly expressing CD138. […] The cells were washed and CD138-bound antibody or conjugates were detected using a fluorescence-labeled secondary antibody in FACS analysis. The mean fluorescence measured in these experiments was plotted against the antibody concentration.
In FIG. 6, the mean fluorescences as measure for the amount of cell bound antibody is plotted against different antibody or conjugate concentrations.
(In general: Flow cytometry measures light scatter and fluorescence of single cells or particles in a stream.)

Take BT062: the cytotoxic activity result in data set [1] (5 days incubation, WST (FIG. 7)) is “very similar”. Moreover, the “cytotoxicity after preincubation with molar excess of unconjugated nBT062” value in data set [1] (blocking antibody 1 μM nBT062 (FIG. 7D)) is recorded as “substantially blocked”. Also, the binding characteristics entry in data set [2] was “very similar binding characteristics”.

Source of the values: US9289509B2, “Uses of immunoconjugates targeting CD138” (Biotest AG, priority 2009, dated 2016).
